The results in this text go back to US20130253037.

Series [1] deals with 6-His-Aurora-A (recombinant, wild type, from Sf9 insect cells).
Series [2] deals with 6-His-cofilin.

B1: 6-His-LIMK2 (recombinant, E. coli) (protein)
chain: MSALAGEDVWRCPGCGDHIAPSQIWYRTVNETWHGSCFRCSECQDSLTNWYYEKDGKLYCPKDYWGKFGEFCHGCSLLMTGPFMVAGEFKYHPECFACMSCKVIIEDGDAYALVQHATLYCGKCHNEVVLAPMFERLSTESVQEQLPYSVTLISMPATTEGRRGFSVSVESACSNYATTVQVKEVNRMHISPNNRNAIHPGDRILEINGTPVRTLRVEEVEDAISQTSQTLQLLIEHDPVSQRLDQLRLEARLAPHMQNAGHPHALSTLDTKENLEGTLRRRSLRRSNSISKSPGPSSPKEPLLFSRDISRSESLRCSSSYSQQIFRPCDLIHGEVLGKGFFGQAIKVTHKATGKVMVMKELIRCDEETQKTFLTEVKVMRSLDHPNVLKFIGVLYKDKKLNLLTEYIEGGTLKDFLRSMDPFPWQQKVRFAKGIASGMAYLHSMCIIHRDLNSHNCLIKLDKTVVVADFGLSRLIVEERKRAPMEKATTKKRTLRKNDRKKRYTVVGNPYWMAPEMLNGKSYDETVDIFSFGIVLCEIIGQVYADPDCLPRTLDFGLNVKLFWEKFVPTDCPPAFFPLAAICCRLEPESRPAFSKLEDSFEALSLYLGELGIPLPAELEELDHTVSMQYGLTRDSPP
For B1, the “in vitro kinase assay, Aurora A (without TPX2) as putative LIMK2 substrate” value in series [1] is given as “when LIMK2 was incubated with Aurora A (without TPX2), Aurora A did not get phosphorylated”. In addition, the “in vitro kinase assay, cofilin phosphorylation with [32P] ATP” value in series [2] is “LIMK2 efficiently phosphorylated cofilin as expected (lane 3)”.
